The results in this text go back to patent publication US20250263504A1 (Takeda / Millennium, published 2025).

Assay [1] deals with T1, Factor XIIa (FXIIa) (UniProt P00748 20-372; P00748 373-615, limits assumed).
T1 construct: the description speaks of human FXIIa; also called active Factor XII
T1 sequence (looked up) 1: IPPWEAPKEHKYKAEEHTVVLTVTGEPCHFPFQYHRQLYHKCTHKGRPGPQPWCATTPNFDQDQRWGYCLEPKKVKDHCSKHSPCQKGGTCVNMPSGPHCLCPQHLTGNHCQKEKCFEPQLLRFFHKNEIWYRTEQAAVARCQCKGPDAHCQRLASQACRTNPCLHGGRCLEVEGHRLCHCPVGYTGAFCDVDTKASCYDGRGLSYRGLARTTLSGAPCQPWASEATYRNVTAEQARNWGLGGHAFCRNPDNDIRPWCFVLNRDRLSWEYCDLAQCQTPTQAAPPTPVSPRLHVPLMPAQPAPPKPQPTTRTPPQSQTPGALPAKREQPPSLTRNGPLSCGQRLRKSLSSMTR
T1 sequence (looked up) 2: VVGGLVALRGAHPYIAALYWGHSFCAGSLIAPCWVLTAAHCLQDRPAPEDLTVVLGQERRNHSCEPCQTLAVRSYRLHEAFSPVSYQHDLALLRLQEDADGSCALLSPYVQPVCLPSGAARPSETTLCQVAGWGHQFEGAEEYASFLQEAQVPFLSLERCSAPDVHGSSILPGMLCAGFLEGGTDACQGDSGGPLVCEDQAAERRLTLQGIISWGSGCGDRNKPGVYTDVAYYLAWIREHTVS
In words: FXIIa enzyme inhibition, Ki,app.

In assay [2] the target is T2, plasma kallikrein (pKal) (UniProt P03952 20-390; P03952 391-638, limits assumed).
T2 construct: the description speaks of human pKal; also called active pKal
T2 sequence (P03952 20-390 limits assumed, form in doubt, chain 1 of 2): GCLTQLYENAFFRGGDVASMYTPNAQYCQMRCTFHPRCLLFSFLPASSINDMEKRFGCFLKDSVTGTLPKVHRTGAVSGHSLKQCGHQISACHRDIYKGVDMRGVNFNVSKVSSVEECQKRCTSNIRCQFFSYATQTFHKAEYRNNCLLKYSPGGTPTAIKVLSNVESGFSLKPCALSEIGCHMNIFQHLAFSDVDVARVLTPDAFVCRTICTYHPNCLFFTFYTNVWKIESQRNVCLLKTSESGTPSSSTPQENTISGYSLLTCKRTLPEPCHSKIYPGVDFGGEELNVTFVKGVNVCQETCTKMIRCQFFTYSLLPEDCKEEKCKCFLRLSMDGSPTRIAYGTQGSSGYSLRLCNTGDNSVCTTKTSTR
T2 sequence (P03952 391-638 limits assumed, form in doubt, chain 2 of 2): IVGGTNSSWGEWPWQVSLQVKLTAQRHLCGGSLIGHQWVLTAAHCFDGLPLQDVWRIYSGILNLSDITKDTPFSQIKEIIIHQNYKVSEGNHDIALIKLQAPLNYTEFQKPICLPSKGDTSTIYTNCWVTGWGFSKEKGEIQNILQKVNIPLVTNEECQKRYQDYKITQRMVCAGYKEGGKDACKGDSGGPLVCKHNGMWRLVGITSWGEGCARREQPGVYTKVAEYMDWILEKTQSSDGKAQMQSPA
The assay can be described thus: pKal enzyme inhibition, Ki,app.

Assay [3] addresses T1, Factor XIIa (FXIIa). In words: enzyme inhibition, corrected Ki,app.
The target of assay [4] is T2, plasma kallikrein (pKal). In words: enzyme inhibition, corrected Ki,app.

B1: 620I-X0179-C01 (bispecific antibody, human IgG1, kappa)
heavy: not shown
light: DIQMTQSPSTLSASVGDRVTITCRASQSISSWLAWYQQKPGKAPKLLIYKASTLESGVPSRFSGSGSGTEFTLTISSLQPDDFATYYCQQYNTYWTFGQGTKVEIKRTVAAPSVFIFPPSDEQLKSGTASVVCLLNNFYPREAKVQWKVDNALQSGNSQESVTEQDSKDSTYSLSSTLTLSKADYEKHKVYACEVTHQGLSSPVTKSFNRGEC
notes: 620I-X0177-A01 with IgG C-terminal Lys changed to Gly; also called 620I-R0052-C01; 620I-X179-C01
As for B1, the Ki in assay [1] was found to be 0.108 nM; in assay [2], 0.243 nM.

B2: 620I-X0142-B11 (bispecific antibody, human IgG1, kappa)
heavy: not shown
light: B1 light
notes: also called 620I-X142-B11
As for B2, the Ki amounted to 7.72 nM in assay [3] and 0.622 nM in assay [4].

B3: 620I-X0179-E05 (bispecific antibody, human IgG1, kappa)
heavy: not shown
light: B1 light
notes: 620I-X0177-C01 with IgG C-terminal Lys deleted; also called 620I-R0052-E01
In the case of B3, the Ki in assay [1] turned out to be 0.099 nM; in assay [2], 0.203 nM.

B4: 620I-X0138-B01 (bispecific antibody, human IgG1, kappa)
heavy: not shown
light: B1 light
notes: also called 620I-X138-B01
On to B4, for which the values for the Ki in assay [3] and in assay [4] were 6.63 nM and 0.169 nM, respectively.

B5: 620I-X0138-E05 (bispecific antibody)
heavy: not shown
light: B1 light
notes: also called 620I-X138-E05
Turning to B5, the figures for the Ki in assay [3] and in assay [4] were 0.245 nM and 0.186 nM, respectively.

B6: 620I-X0142-A04 (bispecific antibody)
heavy: not shown
light: B1 light
notes: also called 620I-X142-A04
On to B6, for which the Ki in assay [3] was determined as 1.23 nM; in assay [4], 0.162 nM.

B7: 620I-X0138-D05 (bispecific antibody)
heavy: not shown
light: B1 light
notes: also called 620I-X138-D05
Regarding B7, the figures for the Ki in assay [3] and in assay [4] were 0.139 nM and 0.519 nM, respectively.

B8: 620I-X0142-B07 (bispecific antibody)
heavy: not shown
light: B1 light
notes: also called 620I-X142-B07
In the case of B8, the Ki in assay [3] came to 0.775 nM; in assay [4], 0.224 nM.

B9: 620I-X0138-F05 (bispecific antibody)
heavy: not shown
light: B1 light
notes: also called 620I-X138-F05
For B9, the Ki amounted to 0.147 nM in assay [3] and 0.214 nM in assay [4].

B10: 620I-X0138-B07 (bispecific antibody)
heavy: not shown
light: B1 light
notes: also called 620I-X138-B07
Take B10: the Ki in assay [3] was found to be 0.135 nM; in assay [4] it was 0.246 nM.

B11: 620I-X0179-G05 (bispecific antibody, human IgG1, kappa)
heavy: not shown
light: B1 light
notes: 620I-X0177-C01 with IgG C-terminal Lys changed to Gly; also called 620I-R0052-G01; 620I-X179-G05
Turning to B11, the Ki was determined as 0.052 nM in assay [1] and 0.226 nM in assay [2].

B12: 620I-X0180-C11 (bispecific antibody, human IgG1, kappa)
heavy: not shown
light: B1 light
notes: 620I-X0177-G01 with IgG C-terminal Lys changed to Gly; also called 620I-R0052-C03; 620I-X180-C11
As to B12, the Ki in assay [1] worked out at 0.14 nM; in assay [2], 0.232 nM.

B13: 620I-X0138-F02 (bispecific antibody)
heavy: not shown
light: B1 light
notes: also called 620I-X138-F02
On to B13, for which the Ki in assay [3] was 0.794 nM; in assay [4], 0.464 nM.

B14: 620I-X0138-D04 (bispecific antibody)
heavy: not shown
light: B1 light
notes: also called 620I-X138-D04
B14: the values for the Ki in assay [3] and in assay [4] were 0.079 nM and 0.215 nM, respectively.

B15: 620I-X0139-G12 (bispecific antibody)
heavy: not shown
light: B1 light
notes: also called 620I-X139-G12
With B15, the Ki in assay [3] turned out to be 0.252 nM; in assay [4] it was 0.276 nM.

B16: 620I-X0139-D12 (bispecific antibody)
heavy: not shown
light: B1 light
notes: also called 620I-X139-D12
With B16, the Ki is 0.383 nM in assay [3] and 0.428 nM in assay [4].

B17: 620I-X0142-B02 (bispecific antibody)
heavy: not shown
light: B1 light
notes: also called 620I-X142-B02
B17: the figures for the Ki in assay [3] and in assay [4] were 0.955 nM and 0.156 nM, respectively.

B18: 620I-X0142-E02 (bispecific antibody)
heavy: not shown
light: B1 light
notes: also called 620I-X142-E02
With B18, the Ki in assay [3] came out at 0.186 nM; in assay [4], 0.162 nM.

B19: 620I-X0138-D06 (bispecific antibody)
heavy: not shown
light: B1 light
notes: also called 620I-X138-D06
Turning to B19, the Ki amounted to 0.132 nM in assay [3] and 0.199 nM in assay [4].

B20: 620I-X0180-A05 (bispecific antibody, human IgG1, kappa)
heavy: not shown
light: B1 light
notes: 620I-X0177-G01 with IgG C-terminal Lys deleted; also called 620I-R0052-A03; 620I-X180-A05
With B20, the Ki in assay [1] turned out to be 0.116 nM; in assay [2], 0.254 nM.

B21: 620I-X0139-A01 (bispecific antibody)
heavy: not shown
light: B1 light
notes: also called 620I-X139-A01
Take B21: the Ki came to 0.053 nM in assay [3] and 0.146 nM in assay [4].

B22: 620I-X0142-A05 (bispecific antibody)
heavy: not shown
light: B1 light
notes: also called 620I-X142-A05
B22: the results for the Ki in assay [3] and in assay [4] were 2.14 nM and 0.16 nM, respectively.

B23: 620I-X0180-G03 (bispecific antibody, human IgG1, kappa)
heavy: not shown
light: B1 light
notes: 620I-X0177-E01 with IgG C-terminal Lys changed to Gly; also called 620I-R0052-G03; 620I-X180-G03
With B23, the Ki in assay [1] came to 0.071 nM; in assay [2] it was 0.208 nM.

B24: 620I-X0138-B10 (bispecific antibody)
heavy: not shown
light: B1 light
notes: also called 620I-X138-B10
For B24, the results for the Ki in assay [3] and in assay [4] were 0.058 nM and 0.075 nM, respectively.

B25: 620I-X0138-D03 (bispecific antibody)
heavy: not shown
light: B1 light
notes: also called 620I-X138-D03
On to B25, for which the results for the Ki in assay [3] and in assay [4] were 0.344 nM and 0.079 nM, respectively.

B26: 620I-X0138-D11 (bispecific antibody)
heavy: not shown
light: B1 light
notes: also called 620I-X138-D11
As to B26, the Ki in assay [3] was found to be 0.443 nM; in assay [4] it was 0.178 nM.

B27: 620I-X0139-E05 (bispecific antibody)
heavy: not shown
light: B1 light
notes: also called 620I-X139-E05
For the molecule B27, the Ki in assay [3] came to 0.172 nM; in assay [4], 0.196 nM.

B28: 620I-X0139-B10 (bispecific antibody)
heavy: not shown
light: B1 light
notes: also called 620I-X139-B10
With B28, the Ki in assay [3] was 0.189 nM; in assay [4], 0.247 nM.

B29: 620I-X0138-C12 (bispecific antibody)
heavy: not shown
light: B1 light
notes: also called 620I-X138-C12
B29: the results for the Ki in assay [3] and in assay [4] were 0.697 nM and 0.267 nM, respectively.

B30: 620I-X0138-E03 (bispecific antibody)
heavy: not shown
light: B1 light
notes: also called 620I-X138-E03
For B30, the Ki in assay [3] turned out to be 0.122 nM; in assay [4], 0.178 nM.

B31: 620I-X0180-E07 (bispecific antibody, human IgG1, kappa)
heavy: not shown
light: B1 light
notes: 620I-X0177-E01 with IgG C-terminal Lys deleted; also called 620I-R0052-E03; 620I-X180-E07
As to B31, the values for the Ki in assay [1] and in assay [2] were 0.092 nM and 0.243 nM, respectively.

B32: 620I-X0138-G12 (bispecific antibody)
heavy: not shown
light: B1 light
notes: also called 620I-X138-G12
With B32, the values for the Ki in assay [3] and in assay [4] were 0.766 nM and 0.186 nM, respectively.

B33: 620I-X0139-A11 (bispecific antibody)
heavy: not shown
light: B1 light
notes: also called 620I-X139-A11
B33: the Ki in assay [3] turned out to be 3.83 nM; in assay [4] it was 0.235 nM.

B34: 620I-X0142-A02 (bispecific antibody)
heavy: not shown
light: B1 light
notes: also called 620I-X142-A02
As for B34, the figures for the Ki in assay [3] and in assay [4] were 0.063 nM and 0.152 nM, respectively.

B35: 620I-X0139-A12 (bispecific antibody)
heavy: not shown
light: B1 light
notes: also called 620I-X139-A12
Regarding B35, the Ki in assay [3] turned out to be 4.08 nM; in assay [4] it was 2.05 nM.

B36: 620I-X0142-D04 (bispecific antibody)
heavy: not shown
light: B1 light
notes: also called 620I-X142-D04
On to B36, for which the Ki in assay [3] stood at 0.414 nM; in assay [4], 0.17 nM.

B37: 620I-X0179-A09 (bispecific antibody, human IgG1, kappa)
heavy: not shown
light: B1 light
notes: 620I-X0177-A01 with IgG C-terminal Lys deleted; also called 620I-R0052-A01; 620I-X179-A09
Regarding B37, the Ki in assay [1] is 0.09 nM; in assay [2] it was 0.225 nM.

B38: 620I-X0138-C07 (bispecific antibody)
heavy: not shown
light: B1 light
notes: also called 620I-X138-C07
For the molecule B38, the values for the Ki in assay [3] and in assay [4] were 0.314 nM and 0.196 nM, respectively.
